Values of other authors as cited in publication PMC4194041.

Target: AP180 fragment with two D(L/I)(L/F) motifs (UniProt Q61548)
Assay: NMR

Chain of UniProt Q61548 (Q61548 623-680): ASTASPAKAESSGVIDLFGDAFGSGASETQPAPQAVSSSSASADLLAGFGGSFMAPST

Clathrin heavy chain TD (from UniProt P11442)
Kd: 250 µM
